For the assay, the target named is TX/50 egg-version rHA1 (Influenza A virus A/Texas/50/2012 …, UniProt R4L1D1, strain). Put plainly: BLI. As to conditions: one partner purified.

B1: monoclonal antibody FluA-20 (antibody, V domains shown)
VH: QVQLEESGPGLVKPSETLSLTCSVSGVSVTSDIYYWTWIRQPPGKGLEWIGYIFYNGDTNYNPSLKSRVTMSIDTSKNEFSLRLTSVTAADTAVYFCARGTEDLGYCSSGSCPNHWGQGTLVTVSS
VL: DIVMTQSPSSLSASIGDRVTITCRPSQNIRSFLNWFQHKPGKAPKLLIYAASNLQSGVPSRFSGSGSGTEFTLTIRSLQPEDFATYYCQQSYNTPPTFGQGTKVEIK
notes: also called FluA-20 mAb; pan-H3 anti-HA1 mAb; copies: 2 + 2
As for B1, the binding result was “binds”.

The values are drawn from article PMC12669751, “Immunodominant antibodies against hemagglutinin in ferrets following infection with 2018 to 2019 influenza vaccine strains” (NPJ Vaccines, 2025).
